Biological target: T1, His-yTop3 (Saccharomyces cerevisiae, UniProt P13099 1-656)
T1 sequence: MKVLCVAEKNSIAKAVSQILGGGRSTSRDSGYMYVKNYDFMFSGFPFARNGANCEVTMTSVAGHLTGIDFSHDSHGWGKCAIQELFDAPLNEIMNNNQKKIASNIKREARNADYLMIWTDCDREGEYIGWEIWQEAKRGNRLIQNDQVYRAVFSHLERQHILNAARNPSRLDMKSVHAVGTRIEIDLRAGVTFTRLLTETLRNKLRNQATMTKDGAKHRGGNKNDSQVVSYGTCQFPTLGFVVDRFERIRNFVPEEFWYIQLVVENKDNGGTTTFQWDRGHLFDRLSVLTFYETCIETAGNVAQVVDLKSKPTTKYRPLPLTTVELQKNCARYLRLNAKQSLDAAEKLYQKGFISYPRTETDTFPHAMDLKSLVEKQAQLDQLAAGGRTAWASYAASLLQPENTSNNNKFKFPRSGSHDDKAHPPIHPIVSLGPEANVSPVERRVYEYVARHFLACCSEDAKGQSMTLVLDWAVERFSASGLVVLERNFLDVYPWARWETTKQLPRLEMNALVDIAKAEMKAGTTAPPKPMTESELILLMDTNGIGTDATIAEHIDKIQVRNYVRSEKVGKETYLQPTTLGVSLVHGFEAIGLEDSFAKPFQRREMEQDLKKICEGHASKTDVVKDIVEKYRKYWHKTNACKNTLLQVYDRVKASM
Assay: EMSA; gel-shift band at 50 nM protein in the RNA topoisomerase reaction; abolished by phenol-chloroform; RNA topoisomerase reaction mixture; buffer, salt, pH and temperature not given in the material

B1: 128-nt circular RNA topoisomerase substrate (structured_RNA)
RNA: GGGAGAUUUUUUUUUUUUUUUUUUUUGUCAGACGGAUCUUUUUUUUUUUUUUUUUUUUUCUCCCGACUGGUUUUUUUUUUUUUUUUUUUUGAUCCGUCUGACUUUUUUUUUUUUUUUUUUUUCCAGUC
modifications: circularised with T4 RNA ligase (5' end joined to 3' end)
  binding result: binds

— PMC4994864
